# Test results reported in IntAct's records for PubMed 11520064.
# B1: Frizzled-8 (Mus musculus), Q61091 (parent)
# chain: MEWGYLLEVTSLLAALAVLQRSSGAAAASAKELACQEITVPLCKGIGYNYTYMPNQFNHDTQDEAGLEVHQFWPLVEIQCSPDLKFFLCSMYTPICLEDYKKPLPPCRSVCERAKAGCAPLMRQYGFAWPDRMRCDRLPEQGNPDTLCMDYNRTDLTTAAPSPPRRLPPPPPPGEQPPSGSGHSRPPGARPPHRGGSSRGSGDAAAAPPSRGGKARPPGGGAAPCEPGCQCRAPMVSVSSERHPLYNRVKTGQIANCALPCHNPFFSQDERAFTVFWIGLWSVLCFVSTFATVSTFLIDMERFKYPERPIIFLSACYLFVSVGYLVRLVAGHEKVACSGGAPGAGGAGGAGGAAAAGAGAAGAGASSPGARGEYEELGAVEQHVRYETTGPALCTVVFLLVYFFGMASSIWWVILSLTWFLAAGMKWGNEAIAGYSQYFHLAAWLVPSVKSIAVLALSSVDGDPVAGICYVGNQSLDNLRGFVLAPLVIYLFIGTMFLLAGFVSLFRIRSVIKQQGGPTKTHKLEKLMIRLGLFTVLYTVPAAVVVACLFYEQHNRPRWEATHNCPCLRDLQPDQARRPDYAVFMLKYFMCLVVGITSGVWVWSGKTLESWRALCTRCCWASKGAAVGAGAGGSGPGGSGPGPGGGGGHGGGGGSLYSDVSTGLTWRSGTASSVSYPKQMPLSQV
# Variants of: B1
# Conditions: with gopc_mouse Gopc
row,effect of a mutation on the interaction,Variant
1,disrupting interaction,V685A
